According to PMC3655812 (Molecular Biology of the Cell, 2013):

B1: MBP-Mgm101 (wild-type fusion of maltose-binding protein with Mgm101 lacking the mitochondrial targeting signal) (natural protein, yeast, UniProt P32787 23-269, looked up)
chain: VVSTGTSNTATAGAVRKSFNSTETKPVFATKSEAGNGSHMKEYSSGINSKLGGTPLETRSTADDSLNNSYKQVKGDIDWYTSWYGLGMKPFEAKVQKDLIEPLDPKDIEIKPDGLIYLPEIKYRRILNKAFGAGGWGLVPRSQTIVTSKLVTREYGLICHGQLISVARGEQDYFNEAGIPTATEGCKSNALMRCCKDLGVGSELWDPVFIKKFKVDHCTEKFVEHVTTKRKKKIWLRKDRQVEYPYK
B2: Mgm101^K253A (tag-free) (natural protein, yeast, UniProt P32787 23-269, looked up)
chain: VVSTGTSNTATAGAVRKSFNSTETKPVFATKSEAGNGSHMKEYSSGINSKLGGTPLETRSTADDSLNNSYKQVKGDIDWYTSWYGLGMKPFEAKVQKDLIEPLDPKDIEIKPDGLIYLPEIKYRRILNKAFGAGGWGLVPRSQTIVTSKLVTREYGLICHGQLISVARGEQDYFNEAGIPTATEGCKSNALMRCCKDLGVGSELWDPVFIKKFKVDHCTEKFVEHVTTKRAKKIWLRKDRQVEYPYK
B3: Mgm101^(K251-K253)A (tag-free) (natural protein, yeast, UniProt P32787 23-269, looked up)
chain: VVSTGTSNTATAGAVRKSFNSTETKPVFATKSEAGNGSHMKEYSSGINSKLGGTPLETRSTADDSLNNSYKQVKGDIDWYTSWYGLGMKPFEAKVQKDLIEPLDPKDIEIKPDGLIYLPEIKYRRILNKAFGAGGWGLVPRSQTIVTSKLVTREYGLICHGQLISVARGEQDYFNEAGIPTATEGCKSNALMRCCKDLGVGSELWDPVFIKKFKVDHCTEKFVEHVTTAAAKKIWLRKDRQVEYPYK
B4: Mgm101^Y139A (tag-free) (natural protein, yeast, UniProt P32787 23-269, looked up)
chain: VVSTGTSNTATAGAVRKSFNSTETKPVFATKSEAGNGSHMKEYSSGINSKLGGTPLETRSTADDSLNNSYKQVKGDIDWYTSWYGLGMKPFEAKVQKDLIEPLDPKDIEIKPDGLIALPEIKYRRILNKAFGAGGWGLVPRSQTIVTSKLVTREYGLICHGQLISVARGEQDYFNEAGIPTATEGCKSNALMRCCKDLGVGSELWDPVFIKKFKVDHCTEKFVEHVTTKRKKKIWLRKDRQVEYPYK
B5: MBP-Mgm101^K253A (natural protein, yeast, UniProt P32787 23-269, looked up)
chain: VVSTGTSNTATAGAVRKSFNSTETKPVFATKSEAGNGSHMKEYSSGINSKLGGTPLETRSTADDSLNNSYKQVKGDIDWYTSWYGLGMKPFEAKVQKDLIEPLDPKDIEIKPDGLIYLPEIKYRRILNKAFGAGGWGLVPRSQTIVTSKLVTREYGLICHGQLISVARGEQDYFNEAGIPTATEGCKSNALMRCCKDLGVGSELWDPVFIKKFKVDHCTEKFVEHVTTKRAKKIWLRKDRQVEYPYK
B6: MBP-Mgm101^W257A (natural protein, yeast, UniProt P32787 23-269, looked up)
chain: VVSTGTSNTATAGAVRKSFNSTETKPVFATKSEAGNGSHMKEYSSGINSKLGGTPLETRSTADDSLNNSYKQVKGDIDWYTSWYGLGMKPFEAKVQKDLIEPLDPKDIEIKPDGLIYLPEIKYRRILNKAFGAGGWGLVPRSQTIVTSKLVTREYGLICHGQLISVARGEQDYFNEAGIPTATEGCKSNALMRCCKDLGVGSELWDPVFIKKFKVDHCTEKFVEHVTTKRKKKIALRKDRQVEYPYK
B7: MBP-Mgm101^Y268A (natural protein, yeast, UniProt P32787 23-269, looked up)
chain: VVSTGTSNTATAGAVRKSFNSTETKPVFATKSEAGNGSHMKEYSSGINSKLGGTPLETRSTADDSLNNSYKQVKGDIDWYTSWYGLGMKPFEAKVQKDLIEPLDPKDIEIKPDGLIYLPEIKYRRILNKAFGAGGWGLVPRSQTIVTSKLVTREYGLICHGQLISVARGEQDYFNEAGIPTATEGCKSNALMRCCKDLGVGSELWDPVFIKKFKVDHCTEKFVEHVTTKRKKKIWLRKDRQVEYPAK
B8: MBP-Mgm101^(K251-K253)A (natural protein, yeast, UniProt P32787 23-269, looked up)
chain: VVSTGTSNTATAGAVRKSFNSTETKPVFATKSEAGNGSHMKEYSSGINSKLGGTPLETRSTADDSLNNSYKQVKGDIDWYTSWYGLGMKPFEAKVQKDLIEPLDPKDIEIKPDGLIYLPEIKYRRILNKAFGAGGWGLVPRSQTIVTSKLVTREYGLICHGQLISVARGEQDYFNEAGIPTATEGCKSNALMRCCKDLGVGSELWDPVFIKKFKVDHCTEKFVEHVTTAAAKKIWLRKDRQVEYPYK

Biological target: the molecule itself
Assay: SEC

Protein	binding result
B1	binds
B2	binds
B3	binds
B4	binds
B5	binds
B6	binds
B7	binds
B8	binds
